Values quoted from earlier work, collected in article PMC9406205.

Key:
[1] = target: GAPDH (Chlamydomonas reinhardtii) (UniProt P50362); experiment: surface plasmon resonance
[2] = target: PRK (Chlamydomonas reinhardtii) (UniProt P19824); experiment: surface plasmon resonance
Chain of UniProt P19824 (P19824 32-375): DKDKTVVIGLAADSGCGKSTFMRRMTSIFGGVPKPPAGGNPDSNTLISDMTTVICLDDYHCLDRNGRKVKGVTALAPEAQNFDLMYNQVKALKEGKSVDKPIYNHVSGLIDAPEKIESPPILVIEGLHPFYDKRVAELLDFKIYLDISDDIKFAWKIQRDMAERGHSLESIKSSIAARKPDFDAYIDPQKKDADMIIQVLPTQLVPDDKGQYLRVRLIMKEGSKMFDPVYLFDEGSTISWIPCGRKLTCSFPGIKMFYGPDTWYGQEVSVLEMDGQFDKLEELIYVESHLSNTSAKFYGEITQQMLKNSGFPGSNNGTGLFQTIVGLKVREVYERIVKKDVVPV

| Substance | Kd [1] [nM] | Kd [2] [nM] |
| --- | --- | --- |
| CP12 (from UniProt A6Q0K5) | 0.44 | – |
| GAPDH-CP12 subcomplex (from UniProt P50362) | – | 60 |
